According to the supplement of paper PMC12042874:
± gives the uncertainty stated by the source.

Test: amyloid nucleation score (Sup35N fusion, yeast selection) (log enrichment); library NNK2; higher = more nucleation; inactive = no reads after selection
In short: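 Using DiMSum, nucleation scores were taken as the log enrichment of output over input reads, centred on the mode score of non-aggregating sequences. The input and output reads came from Illumina sequencing of plasmid inserts, with sequences under 100 input reads excluded. The yeast were psi-negative, expressed Sup35N fused to peptides of 20 random codons, were induced with 100 μM copper sulfate for 24 hours, and were grown 7 days at 30°C on medium lacking adenine and uracil.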

For FKNQGDLQTCLLFD, which amyloid nucleation score is on record?
Its amyloid nucleation score is -0.012 ± 0.79.

With FKPLGTTEGIYTPVMYSYRG as the substance, how does the amyloid nucleation score read?
Its amyloid nucleation score is -0.6 ± 0.27.

Which amyloid nucleation score does the source give for FKVLVSLALSRECS here?
The amyloid nucleation score was -0.75 ± 0.48.

With FLDAFFFGWDVVVRVYSSAP as the substance, how does the amyloid nucleation score read?
The amyloid nucleation score was -0.153 ± 1.1.

With FLEFLDTMWW as the substance, how does the amyloid nucleation score read?
The amyloid nucleation score was -0.233 ± 0.56.

Which amyloid nucleation score does the source give for FLFFGVGMMCEARDAPMVAF here?
Its amyloid nucleation score is 0.073 ± 1.1.

For FLFTQGRLGGGYIVEYLCQL, which amyloid nucleation score is on record?
Its amyloid nucleation score is 3.3 ± 0.15.

With FLGVFSYASSMIISVKRERS as the substance, how does the amyloid nucleation score read?
Its amyloid nucleation score is 4.1 ± 0.095.

For FLGYIKSLCMYYRRSGMINA, which amyloid nucleation score is on record?
The amyloid nucleation score was -2.17 ± 0.62.

Which amyloid nucleation score does the source give for FLKSVSVRVGVILQAHAQEV here?
Its amyloid nucleation score is 0.375 ± 0.57.

For FLLSISNRVDMFIFVLHHFT, which amyloid nucleation score is on record?
The amyloid nucleation score was “inactive”.

For FLMFQNGCFLNDILVLRNAR, which amyloid nucleation score is on record?
Its amyloid nucleation score is -0.472 ± 0.26.

Which amyloid nucleation score does the source give for FLMYFVNR here?
Its amyloid nucleation score is 2.83 ± 0.055.

With FLNHCDYCVVKSRLVDMKLN as the substance, how does the amyloid nucleation score read?
The amyloid nucleation score was -0.296 ± 0.76.

For FLRIVSNVLKWQRA, which amyloid nucleation score is on record?
Its amyloid nucleation score is 2.83 ± 0.069.

With FLRWRDKWHG as the substance, how does the amyloid nucleation score read?
The amyloid nucleation score was 0.861 ± 0.29.

For FLSINISISRVLLSDCTS, which amyloid nucleation score is on record?
Its amyloid nucleation score is 3.05 ± 0.12.

With FLSSIGHLF as the substance, how does the amyloid nucleation score read?
The amyloid nucleation score was 3.89 ± 0.12.

With FLSWCFW as the substance, how does the amyloid nucleation score read?
The amyloid nucleation score was 0.841 ± 0.42.

Which amyloid nucleation score does the source give for FLVNVFM here?
Its amyloid nucleation score is 8.001 ± 0.025.

With FLVYYINFIAAKCRPKSNLR as the substance, how does the amyloid nucleation score read?
The amyloid nucleation score was “inactive”.

For FLYLNAKSVRASIVWYEVKL, which amyloid nucleation score is on record?
The amyloid nucleation score was 8.232 ± 0.048.

Which amyloid nucleation score does the source give for FMARRNVAYILEYIIVYRF here?
Its amyloid nucleation score is -0.735 ± 0.64.

With FMFLEKRVGNVGRYFHEYIG as the substance, how does the amyloid nucleation score read?
The amyloid nucleation score was “inactive”.

With FMMIRV as the substance, how does the amyloid nucleation score read?
The amyloid nucleation score was “inactive”.

For FMNANRRVKKGQRVKRWTYS, which amyloid nucleation score is on record?
Its amyloid nucleation score is 0.045 ± 0.79.

With FMNNMSWLKNFILTWIYKRR as the substance, how does the amyloid nucleation score read?
Its amyloid nucleation score is “inactive”.

With FMQPYTCRSDFDRK as the substance, how does the amyloid nucleation score read?
The amyloid nucleation score was 0.052 ± 0.48.

Which amyloid nucleation score does the source give for FMRMGTFYSDAVCMLYVSKR here?
Its amyloid nucleation score is 1.28 ± 0.23.

Which amyloid nucleation score does the source give for FMVACHCCHTSCEYNFGNTV here?
Its amyloid nucleation score is 3.96 ± 0.13.

With FNCTRKNLCFFGIVYSSIIT as the substance, how does the amyloid nucleation score read?
The amyloid nucleation score was -0.86 ± 0.63.

For FNGLVVFSEHMIRITACDEG, which amyloid nucleation score is on record?
The amyloid nucleation score was -0.479 ± 1.

With FNGSGARGSGRMYAILYKMS as the substance, how does the amyloid nucleation score read?
The amyloid nucleation score was 0.422 ± 0.56.

With FNLMSMIRNRH as the substance, how does the amyloid nucleation score read?
Its amyloid nucleation score is -0.548 ± 0.79.

For FNLTFNHF, which amyloid nucleation score is on record?
The amyloid nucleation score was 6.041 ± 0.045.

Which amyloid nucleation score does the source give for FNLTICSLDVPTFL here?
Its amyloid nucleation score is -0.549 ± 1.

With FNRFLKYMPSSWLWQGCSVQ as the substance, how does the amyloid nucleation score read?
The amyloid nucleation score was -0.451 ± 0.36.

With FNRKTKWAYFWLVHGRNR as the substance, how does the amyloid nucleation score read?
Its amyloid nucleation score is 5.213 ± 0.052.

With FNTILVRLPA as the substance, how does the amyloid nucleation score read?
The amyloid nucleation score was 0.455 ± 0.55.

For FNTYVVNFSRRGDIVMAKR, which amyloid nucleation score is on record?
The amyloid nucleation score was 6.59 ± 0.085.

With FNVKWMRW as the substance, how does the amyloid nucleation score read?
The amyloid nucleation score was 5.36 ± 0.066.

For FNYSPLRFCTNDC, which amyloid nucleation score is on record?
The amyloid nucleation score was 1.63 ± 0.31.

With FNYWPYVLNWWELLYQDDAT as the substance, how does the amyloid nucleation score read?
The amyloid nucleation score was 1.11 ± 0.23.

Which amyloid nucleation score does the source give for FPGWGIDPTYKVKVRWMNRA here?
The amyloid nucleation score was 0.566 ± 0.33.

With FPQWFHFGCNLARSL as the substance, how does the amyloid nucleation score read?
Its amyloid nucleation score is -0.613 ± 0.46.

With FPWYCVGYVRSKRDRKVAWS as the substance, how does the amyloid nucleation score read?
Its amyloid nucleation score is 0.04 ± 0.34.

With FQCLVFLLIGRFGVRHWT as the substance, how does the amyloid nucleation score read?
Its amyloid nucleation score is -0.675 ± 1.1.

With FQDDDDPFFCVFAYFIGFFA as the substance, how does the amyloid nucleation score read?
The amyloid nucleation score was -0.983 ± 1.1.

For FQDWCHREYYLRLREVSLGG, which amyloid nucleation score is on record?
Its amyloid nucleation score is “inactive”.

With FQPFVDLLDVVHRELGSLTR as the substance, how does the amyloid nucleation score read?
The amyloid nucleation score was 4.76 ± 0.067.

Which amyloid nucleation score does the source give for FQSDLMINIK here?
Its amyloid nucleation score is -0.496 ± 0.56.

For FREVSSLRCIIFLHITCRNS, which amyloid nucleation score is on record?
Its amyloid nucleation score is 0.647 ± 0.57.

Which amyloid nucleation score does the source give for FRFRSNSMSFHNADISLLSV here?
Its amyloid nucleation score is “inactive”.

With FRIHIWYGY as the substance, how does the amyloid nucleation score read?
Its amyloid nucleation score is 0.244 ± 0.17.

Which amyloid nucleation score does the source give for FRRLNTATRRCVTSG here?
The amyloid nucleation score was -1.13 ± 0.55.

Which amyloid nucleation score does the source give for FRSGGPLFFHSMGTGFVFVH here?
Its amyloid nucleation score is -1.5 ± 1.1.

With FRSHCWL as the substance, how does the amyloid nucleation score read?
Its amyloid nucleation score is 0.285 ± 0.41.

With FRTQAF as the substance, how does the amyloid nucleation score read?
The amyloid nucleation score was 1.16 ± 0.47.

With FRVFCMHSED as the substance, how does the amyloid nucleation score read?
The amyloid nucleation score was 2.47 ± 0.12.

With FRVKRL as the substance, how does the amyloid nucleation score read?
Its amyloid nucleation score is -1.19 ± 1.1.

For FRVWSFFLNF, which amyloid nucleation score is on record?
The amyloid nucleation score was 3.12 ± 0.1.

For FSAEIRGTQRMLQRLSLYKR, which amyloid nucleation score is on record?
Its amyloid nucleation score is 1.61 ± 0.092.

With FSCFIIYVGQKTACNSNTAL as the substance, how does the amyloid nucleation score read?
Its amyloid nucleation score is 4.57 ± 0.08.

Which amyloid nucleation score does the source give for FSCWGFMVFRMVGDMLSMKD here?
Its amyloid nucleation score is -1.58 ± 0.49.

With FSDFGMSLRISAKVEWIAMG as the substance, how does the amyloid nucleation score read?
Its amyloid nucleation score is -1.59 ± 0.78.

With FSEFIYLCTSLMDARQGMVP as the substance, how does the amyloid nucleation score read?
Its amyloid nucleation score is -0.804 ± 1.1.

With FSEYWVLSELVMVNKGVIWM as the substance, how does the amyloid nucleation score read?
Its amyloid nucleation score is -0.865 ± 0.36.

With FSFSCEGANFDVYTGMWQGS as the substance, how does the amyloid nucleation score read?
The amyloid nucleation score was -0.073 ± 0.45.

For FSFYECLRGFFSNVDARCQV, which amyloid nucleation score is on record?
The amyloid nucleation score was 1.51 ± 0.11.

Which amyloid nucleation score does the source give for FSGFNR here?
The amyloid nucleation score was “inactive”.

With FSGLSCY as the substance, how does the amyloid nucleation score read?
Its amyloid nucleation score is “inactive”.

Which amyloid nucleation score does the source give for FSGLTDHFRSYLMYSAWTNI here?
The amyloid nucleation score was -0.238 ± 0.48.

With FSHNTEFRVGCGYEFAVGKA as the substance, how does the amyloid nucleation score read?
Its amyloid nucleation score is -0.262 ± 0.79.

For FSIGGVKGEGSKFQGGSQMS, which amyloid nucleation score is on record?
The amyloid nucleation score was -0.12 ± 1.

For FSKLLDGLTNRSESPASSVD, which amyloid nucleation score is on record?
Its amyloid nucleation score is 1.69 ± 0.14.

With FSKLVSIYFWGSGWWFCQWA as the substance, how does the amyloid nucleation score read?
Its amyloid nucleation score is -0.532 ± 0.64.

With FSLFISKMN as the substance, how does the amyloid nucleation score read?
Its amyloid nucleation score is -0.474 ± 1.

With FSLLTTFSLTNGGPAFLMIR as the substance, how does the amyloid nucleation score read?
Its amyloid nucleation score is “inactive”.

For FSMRCYRVVLKYVSTGW, which amyloid nucleation score is on record?
The amyloid nucleation score was 0.905 ± 0.35.

Which amyloid nucleation score does the source give for FSMYSSSVWLDW here?
The amyloid nucleation score was “inactive”.

For FSPHHEPTSRG, which amyloid nucleation score is on record?
Its amyloid nucleation score is 0.426 ± 0.45.

With FSPVSPSSGKAHGIGLVLLV as the substance, how does the amyloid nucleation score read?
The amyloid nucleation score was 0.083 ± 0.41.

Which amyloid nucleation score does the source give for FSRADTVF here?
Its amyloid nucleation score is 2.79 ± 0.13.

Which amyloid nucleation score does the source give for FSRSVKRLIVDVLRNKVCI here?
Its amyloid nucleation score is 0.58 ± 0.54.

With FSSEGLRIRKIRQGISISLC as the substance, how does the amyloid nucleation score read?
The amyloid nucleation score was -1.21 ± 1.1.

With FSSLRILTERENFHLVSGVH as the substance, how does the amyloid nucleation score read?
Its amyloid nucleation score is -1 ± 0.78.
